B1: pΔRPH1+2: plasmid for ΔRPH1+2 deletion mutant, in vitro translated protein of 31 kDa (protein)
chain: MDSGVPISSAVAGVAIGLVTKTDPEKGEIEDYRLLTDILGIEDYNGDMDFKIAGTNKGITALQADIKLPGIPIKIVMEAIQQASVAKKEILQIMNKTISKPRASRKENGPVVETVQVPLSKRAKFVGPGGYNLKKLQAETGVTISQVDEETFSVFAPTPSVMHEARDFITEICKDDQEQQLEFGAVYTATITEIRDTGVMVKLYPNMTAVLLHNTQLDQRKIKHPTALGLEVGQEIQVKYFGRDPADGRMRLSRKVLQSPATTVVRTLNDRSSIVMGEPISQSSSNSQYPYDVPDYA
B2: phPNPase^old-35: plasmid expressing full-length HA-tagged hPNPase^OLD-35 protein, in vitro translated for RNA degradation assays (protein, UniProt Q8TCS8 1-783, looked up)
chain: MAACRYCCSCLRLRPLSDGPFLLPRRDRALTQLQVRALWSSAGSRAVAVDLGNRKLEISSGKLARFADGSAVVQSGDTAVMVTAVSKTKPSPSQFMPLVVDYRQKAAAAGRIPTNYLRREIGTSDKEILTSRIIDRSIRPLFPAGYFYDTQVLCNLLAVDGVNEPDVLAINGASVALSLSDIPWNGPVGAVRIGIIDGEYVVNPTRKEMSSSTLNLVVAGAPKSQIVMLEASAENILQQDFCHAIKVGVKYTQQIIQGIQQLVKETGVTKRTPQKLFTPSPEIVKYTHKLAMERLYAVFTDYEHDKVSRDEAVNKIRLDTEEQLKEKFPEADPYEIIESFNVVAKEVFRSIVLNEYKRCDGRDLTSLRNVSCEVDMFKTLHGSALFQRGQTQVLCTVTFDSLESGIKSDQVITAINGIKDKNFMLHYEFPPYATNEIGKVTGLNRRELGHGALAEKALYPVIPRDFPFTIRVTSEVLESNGSSSMASACGGSLALMDSGVPISSAVAGVAIGLVTKTDPEKGEIEDYRLLTDILGIEDYNGDMDFKIAGTNKGITALQADIKLPGIPIKIVMEAIQQASVAKKEILQIMNKTISKPRASRKENGPVVETVQVPLSKRAKFVGPGGYNLKKLQAETGVTISQVDEETFSVFAPTPSAMHEARDFITEICKDDQEQQLEFGAVYTATITEIRDTGVMVKLYPNMTAVLLHNTQLDQRKIKHPTALGLEVGQEIQVKYFGRDPADGRMRLSRKVLQSPATTVVRTLNDRSSIVMGEPISQSSSNSQ
modifications: full-length HA tag
notes: plasmid expressing full-length HA-tagged hPNPase^OLD-35 protein, in vitro translated for RNA degradation assays
B3: pGADD153: unrelated plasmid that expresses a transcription factor (protein, UniProt P35638 1-169, looked up)
DNA damage-inducible …: MAAESLPFSFGTLSSWELEAWYEDLQEVLSSDENGGTYVSPPGNEEEESKIFTTLDPASLAWLTEEEPEPAEVTSTSQSPHSPDSSQSSLAQEEEEEDQGRTRKRKQSGHSPARAGKQRMKEKEQENERKVAQLAEENERLKQEIERLTREVEATRRALIDRMVNLHQA
modifications: expressed from plasmid
notes: unrelated plasmid that expresses a transcription factor
B4: ΔRPH2 deletion mutant of hPNPase^OLD-35 (a.a. 1-202 and 496-783) with C-terminal HA tag (enzyme)
chain: MAACRYCCSCLRLRPLSDGPFLLPRRDRALTQLQVRALWSSAGSRAVAVDLGNRKLEISSGKLARFADGSAVVQSGDTAVMVTAVSKTKPSPSQFMPLVVDYRQKAAAAGRIPTNYLRREVGTSDKEILTSRIIDRSIRPLFPAGYFYDTQVLCNLLAVDGVNEPDVLAINGASVALSLSDIPWNGPVGAVRIGIIDGEYVVMDSGVPISSAVAGVAIGLVTKTDPEKGEIEDYRLLTDILGIEDYNGDMDFKIAGTNKGITALQADIKLPGIPIKIVMEAIQQASVAKKEILQIMNKTISKPRASRKENGPVVETVQVPLSKRAKFVGPGGYNLKKLQAETGVTISQVDEETFSVFAPTPSVMHEARDFITEICKDDQEQQLEFGAVYTATITEIRDTGVMVKLYPNMTAVLLHNTQLDQRKIKHPTALGLEVGQEIQVKYFGRDPADGRMRLSRKVLQSPATTVVRTLNDRSSIVMGEPISQSSSNSQYPYDVPDYA
notes: The two fragments were joined at an HpaI site; also called Ad.ΔRPH2; pΔRPH2
B5: ΔC-term deletion mutant of hPNPase^OLD-35 (a.a. 1-507) with C-terminal HA tag (enzyme)
chain: MAACRYCCSCLRLRPLSDGPFLLPRRDRALTQLQVRALWSSAGSRAVAVDLGNRKLEISSGKLARFADGSAVVQSGDTAVMVTAVSKTKPSPSQFMPLVVDYRQKAAAAGRIPTNYLRREVGTSDKEILTSRIIDRSIRPLFPAGYFYDTQVLCNLLAVDGVNEPDVLAINGASVALSLSDIPWNGPVGAVRIGIIDGEYVVNPTRKEMSSSTLNLVVAGAPKSQIVMLEASAENILQQDFCHAIKVGVKYTQQIIQGIQQLVKETGVTKRTPQKLFTPSPEIVKYTHKLAMERLYAVFTDYEHDKVSRDEAVNKIRLDTEEQLKEKFPEADPYEIIESFNVVAKEVFRSIVLNEYKRCDGRDLTSLRNVSCEVDMFKTLHGSALFQRGQTQVLCTVTFDSLESGIKSDQVITAINGIKDKNFMLHYEFPPYATNEIGKVTGLNRRELGHGALAEKALYPVIPRDFPFTIRVTSEVLESNGSSSMASACGGSLALMDSGVPISSAVAYPYDVPDYA
notes: also called Ad.ΔC-term; pΔC-term
B6: ΔRPH1 deletion mutant of hPNPase^OLD-35 (a.a. 183-783) with C-terminal HA tag (enzyme)
chain: PWNGPVGAVRIGIIDGEYVVNPTRKEMSSSTLNLVVAGAPKSQIVMLEASAENILQQDFCHAIKVGVKYTQQIIQGIQQLVKETGVTKRTPQKLFTPSPEIVKYTHKLAMERLYAVFTDYEHDKVSRDEAVNKIRLDTEEQLKEKFPEADPYEIIESFNVVAKEVFRSIVLNEYKRCDGRDLTSLRNVSCEVDMFKTLHGSALFQRGQTQVLCTVTFDSLESGIKSDQVITAINGIKDKNFMLHYEFPPYATNEIGKVTGLNRRELGHGALAEKALYPVIPRDFPFTIRVTSEVLESNGSSSMASACGGSLALMDSGVPISSAVAGVAIGLVTKTDPEKGEIEDYRLLTDILGIEDYNGDMDFKIAGTNKGITALQADIKLPGIPIKIVMEAIQQASVAKKEILQIMNKTISKPRASRKENGPVVETVQVPLSKRAKFVGPGGYNLKKLQAETGVTISQVDEETFSVFAPTPSVMHEARDFITEICKDDQEQQLEFGAVYTATITEIRDTGVMVKLYPNMTAVLLHNTQLDQRKIKHPTALGLEVGQEIQVKYFGRDPADGRMRLSRKVLQSPATTVVRTLNDRSSIVMGEPISQSSSNSQYPYDVPDYA
notes: also called Ad.ΔRPH1; pΔRPH1
B7: NF-κB p50 subunit (other, human, UniProt P19838 1-433, looked up)
chain: MAEDDPYLGRPEQMFHLDPSLTHTIFNPEVFQPQMALPTDGPYLQILEQPKQRGFRFRYVCEGPSHGGLPGASSEKNKKSYPQVKICNYVGPAKVIVQLVTNGKNIHLHAHSLVGKHCEDGICTVTAGPKDMVVGFANLGILHVTKKKVFETLEARMTEACIRGYNPGLLVHPDLAYLQAEGGGDRQLGDREKELIRQAALQQTKEMDLSVVRLMFTAFLPDSTGSFTRRLEPVVSDAIYDSKAPNASNLKIVRMDRTAGCVTGGEEIYLLCDKVQKDDIQIRFYEEEENGGVWEGFGDFSPTDVHRQFAIVFKTPKYKDINITKPASVFVQLRRKSDLETSEPKPFLYYPEIKDKEEVQRKRQKLMPNFSDSFGGGSGAGAGGGGMFGSGGGGGGTGSTGPGYSFPHYGFPTYGGITFHPGTTKSNAGMKHG
notes: also called NF-κB1 (p50/p105)

test system: c-myc mRNA; assay: In vitro mRNA degradation assay with in vitro translated proteins; type: biochemical, human; conditions: in vitro translated protein incubated with HO-1 total RNA for 0.5 and 2 h
Experimental: In vitro Translation and in vitro mRNA Degradation Assays: In vitro translation was performed using the TNT coupled Reticulocyte Lysate Systems (Promega) using the plasmids pcDNA3.1+(Hygro) as a control, GADD153 expression plasmid, phPNPase^old-35, pΔRPH1, pΔRPH2, pΔRPH1+2 and pΔC-term according to the manufacturer's protocol. Five […] of total RNA from HO-1 cells were incubated with 5 μl of each in vitro translated protein at 37° C. from 0.5 to 2 h. The RNA was repurified using the Qiagen RNeasy mini kit (Qiagen) and Northern blotting was performed.

Question: B1 was tested. Which “degradation of c-myc mRNA” value did it give?
Answer: Its value is “No degradation”.

Question: Which “degradation of c-myc mRNA” value does the source give for B2 here?
Answer: The value was “significant degradation”.

Question: B3 was tested. Which “degradation of c-myc mRNA” value did it give?
Answer: The value was “No degradation”.

Question: Which “degradation of c-myc mRNA” value does the source give for B4 here?
Answer: The value was “significant degradation”.

Question: With B5 as the molecule, how does the “degradation of c-myc mRNA” value read?
Answer: Its value is “significant degradation”.

Question: For B6, which “degradation of c-myc mRNA” value is on record?
Answer: The value was “significant degradation”.

target: NF-κB p65 subunit (RelA) (human, UniProt Q04206 1-551); assay: complex composition inferred from EMSA supershift; conditions: not given
Sequence (Q04206 whole entry): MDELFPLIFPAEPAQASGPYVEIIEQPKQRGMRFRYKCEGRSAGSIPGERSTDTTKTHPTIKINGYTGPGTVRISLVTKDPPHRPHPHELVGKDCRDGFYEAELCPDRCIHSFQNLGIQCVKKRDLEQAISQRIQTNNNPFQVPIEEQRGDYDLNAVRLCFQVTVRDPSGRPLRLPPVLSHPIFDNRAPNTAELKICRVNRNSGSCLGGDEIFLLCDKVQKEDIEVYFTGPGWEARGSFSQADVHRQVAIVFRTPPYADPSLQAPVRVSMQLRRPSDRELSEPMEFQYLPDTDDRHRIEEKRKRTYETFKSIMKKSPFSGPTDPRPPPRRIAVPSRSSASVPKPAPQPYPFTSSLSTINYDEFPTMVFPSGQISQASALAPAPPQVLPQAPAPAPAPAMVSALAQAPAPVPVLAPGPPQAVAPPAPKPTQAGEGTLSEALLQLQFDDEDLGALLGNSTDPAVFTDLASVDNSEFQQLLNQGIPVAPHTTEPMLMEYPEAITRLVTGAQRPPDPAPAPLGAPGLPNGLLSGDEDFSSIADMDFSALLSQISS

Question: Does B7 bind?
Answer: Result: binds

Target: the molecule itself
Assay: self-association inferred from anti-HA Western blot of fractionated HO-1 cells
Conditions: not given

Question: Does B4 bind?
Answer: Result: no binding

Question: Does B5 bind?
Answer: Result: no binding

Question: Does B6 bind?
Answer: Result: no binding

Source: patent US20080057055A1, “OLD-35 as an inflammatory agent” (priority 2004, published 2008)
